For data set [1], the target named is C3b (UniProt P01024).
Data set [2] has as its target C3b, P01024.

C3b, P01024, sequence (P01024 whole entry, looked up): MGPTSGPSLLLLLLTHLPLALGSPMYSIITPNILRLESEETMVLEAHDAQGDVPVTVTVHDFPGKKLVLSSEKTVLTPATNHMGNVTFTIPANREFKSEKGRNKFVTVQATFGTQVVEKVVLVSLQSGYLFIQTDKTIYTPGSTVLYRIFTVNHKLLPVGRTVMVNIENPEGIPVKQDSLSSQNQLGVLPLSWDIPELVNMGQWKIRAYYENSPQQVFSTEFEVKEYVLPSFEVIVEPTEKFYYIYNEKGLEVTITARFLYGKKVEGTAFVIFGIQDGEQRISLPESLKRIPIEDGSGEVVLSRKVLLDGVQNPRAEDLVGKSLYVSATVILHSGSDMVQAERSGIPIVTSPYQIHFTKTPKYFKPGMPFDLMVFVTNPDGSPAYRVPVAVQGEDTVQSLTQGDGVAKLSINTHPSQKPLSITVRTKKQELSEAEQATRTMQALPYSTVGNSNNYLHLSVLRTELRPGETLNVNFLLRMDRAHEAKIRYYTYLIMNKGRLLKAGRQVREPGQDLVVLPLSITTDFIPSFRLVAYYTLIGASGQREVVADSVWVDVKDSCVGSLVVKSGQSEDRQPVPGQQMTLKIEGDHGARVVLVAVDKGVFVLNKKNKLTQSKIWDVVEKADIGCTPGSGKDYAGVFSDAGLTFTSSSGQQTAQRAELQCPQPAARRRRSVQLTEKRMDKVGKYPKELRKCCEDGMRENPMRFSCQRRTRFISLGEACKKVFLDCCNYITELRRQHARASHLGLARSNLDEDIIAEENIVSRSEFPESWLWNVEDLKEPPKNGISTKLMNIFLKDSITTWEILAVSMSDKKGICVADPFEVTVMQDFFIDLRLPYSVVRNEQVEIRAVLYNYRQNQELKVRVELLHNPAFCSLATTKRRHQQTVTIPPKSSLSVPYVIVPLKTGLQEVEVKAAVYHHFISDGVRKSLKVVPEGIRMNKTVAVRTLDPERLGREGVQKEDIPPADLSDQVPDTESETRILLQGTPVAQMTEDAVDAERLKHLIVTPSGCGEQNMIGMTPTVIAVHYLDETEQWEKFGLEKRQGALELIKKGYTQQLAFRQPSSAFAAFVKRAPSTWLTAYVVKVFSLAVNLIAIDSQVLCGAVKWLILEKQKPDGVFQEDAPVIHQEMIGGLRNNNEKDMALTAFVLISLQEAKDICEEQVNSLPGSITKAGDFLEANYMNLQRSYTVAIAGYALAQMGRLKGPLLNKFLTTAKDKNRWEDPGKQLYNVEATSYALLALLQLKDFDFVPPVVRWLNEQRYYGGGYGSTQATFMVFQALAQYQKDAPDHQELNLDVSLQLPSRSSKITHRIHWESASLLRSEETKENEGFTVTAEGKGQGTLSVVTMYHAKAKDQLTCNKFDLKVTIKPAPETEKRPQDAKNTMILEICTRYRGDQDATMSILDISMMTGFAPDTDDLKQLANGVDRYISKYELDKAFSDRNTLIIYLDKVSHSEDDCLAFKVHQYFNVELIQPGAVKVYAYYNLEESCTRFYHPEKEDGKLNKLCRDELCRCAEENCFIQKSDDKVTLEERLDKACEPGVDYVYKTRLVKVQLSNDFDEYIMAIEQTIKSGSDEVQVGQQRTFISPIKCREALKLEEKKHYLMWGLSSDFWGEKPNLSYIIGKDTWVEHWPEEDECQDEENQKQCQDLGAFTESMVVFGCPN

For “recombinant precursor Complement Factor I (single chain with intact RRKR linker)”, the “fluid phase cofactor activity (C3b cleavage with Factor H, SDS-PAGE, Coomassie)” value in data set [1] was “by 45 minutes 10ng of precursor CFI showed no demonstrable activity”.
Still for that read-out and setting: the value for “recombinant mature Complement Factor I produced from the Furin-IRES-CFI vector (VB171219-1127wqz) in HEK293T cells” was “Enzymatic activity of IRES CFI and serum CFI was demonstrated to be equivilant”; that for “recombinant mature Complement Factor I from the pDEF-CFI vector in CHO-K1 cells (first Mono S peak)” was “At 30 minutes the lowest concentration of fully processed factor I (6.25ng) (right) had cleaved C3b as evidenced by decrease in C3α -110 band and increase in C3α-68,-46, and -43 bands”.

B1: serum purified Complement Factor I (Complement Technology, A138) (protein)
chain: KVTYTSQEDLVEKKCLAKKYTHLSCDKVFCQPWQRCIEGTCVCKLPYQCPKNGTAVCATNRRSFPTYCQQKSLECLHPGTKFLNNGTCTAEGKFSVSLKHGNTDSEGIVEVKLVDQDKTMFICKSSWSMREANVACLDLGFQQGADTQRRFKLSDLSINSTECLHVHCRGLETSLAECTFTKRRTMGYQDFADVVCYTQKADSPMDDFFQCVNGKYISQMKACDGINDCGDQSDELCCKACQGKGFHCKSGVCIPSQYQCNGEVDCITGEDEVGCAGFASVTQEETEILTADMDAERRRIKSLLPKLSCGVKNRMHIRRKRIVGGKRAQLGDLPWQVAIKDASGITCGGIYIGGCWILTAAHCLRASKTHRYQIWTTVVDWIHPDLKRIVIEYVDRIIFHENYNAGTYQNDIALIEMKKDGNKKDCELPRSIPACVPWSPYLFQPNDTCIVSGWGREKDNERVFSLQWGEVKLISNCSKFYGNRFYEKEMECAGTYDGSIDACKGDSGGPLVCMDANNVTYVWGVVSWGENCGKPEFPGVYTKVANYFDWISYHVGRPFISQYNV
Consider B1, for which the “fluid phase cofactor activity (C3b cleavage with Factor H, SDS-PAGE, Coomassie)” value in data set [2] is “Enzymatic activity of IRES CFI and serum CFI was demonstrated to be equivilant”.

Values taken from patent publication US20230212635.
